Substrate in series [1]: C[S+](C)(=O)CCC(=O)[O-]
Kind of series: HPLC of DMSO, initial rates, non-linear fit. As to conditions: pH 8, 30 °C, CoA, ATP, Mg2+ present. The class given is biochemical, Psychrobacter sp.

Substrate in series [2]: C[S+](C)(=O)CCC(=O)[O-]
Kind of series: HPLC of acrylate, initial rates, non-linear fit. As to conditions: pH 8, 30 °C. Format: biochemical, Ruegeria pomeroyi. The text has this:
HPLC of acrylate, initial rates, non-linear fit on DddW | Only the catalytic efficiency of DddW for DMSOP was similar to that for DMSP

Substrate in series [3]: C[S+](C)(=O)CCC(=O)[O-]
Kind of series: HPLC of acrylate, initial rates, non-linear fit. The conditions noted are these: pH 8, 30 °C. The class given is biochemical, Candidatus Pelagibacter communis.

Substrate in series [4]: C[S+](C)(=O)CCC(=O)[O-]
Kind of series: HPLC of acrylate, initial rates, non-linear fit. The conditions noted are these: pH 8, 30 °C. Format: biochemical, Alcaligenes faecalis.

Substrate in series [5]: C[S+](C)(=O)CCC(=O)[O-]
Kind of series: HPLC of acrylate, initial rates, non-linear fit. The class given is biochemical, Emiliania huxleyi. The conditions noted are these: pH 8, 30 °C.

In general, Km refers to the concentration of substrate that gives half-maximal velocity. As usually defined, the kcat is the maximal rate divided by the concentration of active sites.

B1: DddX (Psychrobacter sp.) (protein)
chain: LTGQIIEYTIKIQTIYTGNFKHKNGFLKMIERGIAMKKENLKILAKKAQTIAIVGANYRFATRVLLENLDKMDFTGTIYLVNPRYENIDGVRCYQSLLEIEDTIDVVVGLVNPQLMIQVASNASKINAKVLVIPGGGYGESGVEGQNIQNAILERAADSGMRIVGPNCMGYLNMHAQFTPYIGTLHRPLRPIKKGPVSIISQSGSVNDAFIASKLGISKIYSTGNEADVQMHDYLNLLAEDPETSVIILYIEAIRNHLSFLRALDLCSKNKKPVIAIKVGRTIKSAAVANAHSGALAGDYEIEKLFLEGHGVLFVEDIDQAVAVALLLSQPYLPTVNTVAALTVSGGQAGILLDLAEDYGVDFPDFSAVTNYEIASKLPELGGLSNPLDIWGKSSKDFSEVSNICLSSIVKDADIGIITVAIDAPIGQGDHEFDFTSIPAKDLASLRGNSDKPFLYFSHIQTEFDPRVESILDEAGIAVIQGSRNALVACRALFKYKEFLEKNNHTPIYSVEDLSIQKGLKLLHDNEGRKLLDESGFVSPREQVVTSLQEGVDYAESIGYPVVLKAQGLAHKTDVGGVALNIKSAAKLKKAWGKMEHLNSPYYLIQEMVTDGFETILAYRTDMNYGPVVIFGLGGIYTELFNEVVLAVPPITHKKAEQMVKSIPMLWKSIEGYRGNPALDLEALTASIVQMGETAMEKYEEIVEFEINPLSVRVKGVVALDVLASVKTTAAKEADAEEADVKKCSELV
notes: pET-22b, C-terminal His tag, E. coli BL21(DE3); Ni-NTA and gel filtration
Consider B1, for which the Michaelis-Menten constant (Km) in series [1] is listed as 1 ± 0.2 mM.

B2: DddW (Ruegeria pomeroyi DSS-3) (protein)
chain: MTAMLDSFATDLTAATSLHQPGNLPHPPHAIDAENVPLSGGTDPTYGEVRWRTLINGTEAAPRDMVLGIAEFGPGHQLRPHRHTPPEFYLGLEGSGIVTIDGVPHEIRAGVALYIPGDAEHGTVAGPEGLRFAYGFASASFEAIEYRFTASA
notes: pET-22b, C-terminal His tag, E. coli BL21(DE3)
Regarding B2, in series [2], the Km came to 11.2 ± 1.6 mM and the kcat is 26.7 ± 3.9 s⁻¹.

B3: DddK (Candidatus Pelagibacter ubique HTCC1062) (protein)
chain: MIFVKNLASVLSQEWSSTEKYPGVRWKFLIDADFDGSSGLSLGFAEIAPGGDLTLHYHSPAEIYVVTNGKGILNKSGKLETIKKGDVVYIAGNAEHALKNNGKETLEFYWIFPTDRFSEVEYFPAKQKSG
notes: pET-22b, C-terminal His tag, E. coli BL21(DE3); Ni-NTA and gel filtration; dimer in asymmetric unit; Mn2+
Consider B3, for which, in series [3], the Km was determined as 24.1 ± 3.4 mM and the kcat came out at 14.8 ± 0.9 s⁻¹.

B4: A. faecalis DddY (Alcaligenes faecalis) (protein)
chain: AQFQCQDDVKPAAISAEEQKLVDQFWAESLVYLEQYLKALETPTGQCKDSAQATIQTYHSETGKAQTRCIMKYRDMELLAKHLKAVLAEPDKAKACFDPQKNYKEFTLYTPSSQVQQLSATSTWINRPLLTDYYTKMGGAIGAAGLELNENFLAITSRTDTTAHWTRDVSIKGLPTLWSSVGWVPLYAENPAAGSDRFRGGYLYAELMGPWGNLRIKEINGEKVGAEIGMTVQLFNTSYPFHYHHPQETYMTLTKPQCVDQNKYMVMHWDSDQFTQTRSDKGWTVEIDGSKERWKKWFANQDVNKEWLTYFERNAIHAFHALEGCNQTIQNSGLVAVWARSTSQDNEQFTQLCRPASGPDGVKRMRPGQKTVCDVRDWKP
notes: as for B1
As for B4, in series [4], the Km was 41.0 mM and the turnover number (kcat) is 26.5 s⁻¹.

B5: Alma1 (Emiliania huxleyi) (protein)
chain: MGNCTSHPHHEPQVHFDTVDGMATVKAFAGIRQVTMGVLRIDYEYQTNLGDILDPRSFDFRIISATAEGLTFAKAKAGDKLDATGKELLERAVRQLIDNGADFIVGDCGFLVYWQVMVRDYAQDYAQKKYGRKCPVMMSSLVLALPLLATIPSGGQIGILTASEKSLQAVQKKLPIVIEDHQKEDGGQRSRSVPAAEDPSGIMINFSDPRFKVVGLDEVKDFKHALDAQGADAVNDRRDIAVQIAAYCQKVQEKNPQIAAWLIECTEAGGFAWAIKVGTGLPVWDPITLGRFLSLGFTANVPNVALTLGQHGENPLDPSATTAGKGRCTGEEPGQIHALGAEFQAIREGTL
notes: as for B1
Regarding B5, in series [5], the Km is 8.8 ± 1.1 mM and the kcat was 0.2 ± 0.01 s⁻¹.

Source of the values: PMC10686828, “DMSOP-cleaving enzymes are diverse and widely distributed in marine microorganisms” (Nature Microbiology, 2023).
